Where “and” joins values, the source holds several entries; their conditions need not be identical. Equal values may be shown once. Entries after “also recorded” stand apart in the source; their conditions may differ.
Experiments:
[1] = molecular target: T1, Recombinant human A33 protein (Homo sapiens, UniProt Q99795); assay: Biacore T100 surface plasmon resonance, binding to human A33 antigen; details: Biacore T100, bivalent analyte model
T1 construct: purchased Novoprotein
T1 sequence (Q99795 22-319): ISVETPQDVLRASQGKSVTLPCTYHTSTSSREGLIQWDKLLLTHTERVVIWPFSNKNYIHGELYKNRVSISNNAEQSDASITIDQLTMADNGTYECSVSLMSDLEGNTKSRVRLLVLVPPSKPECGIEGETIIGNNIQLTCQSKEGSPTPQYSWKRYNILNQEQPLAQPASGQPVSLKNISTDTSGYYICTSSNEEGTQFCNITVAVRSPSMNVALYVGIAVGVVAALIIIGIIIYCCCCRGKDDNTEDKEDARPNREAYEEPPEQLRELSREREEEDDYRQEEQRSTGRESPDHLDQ
Method: Binding affinity was measured by Biacore T100.
Biacore T100 Biosensor, CM5 sensor chip, and related reagents were purchased from GE Healthcare. Recombinant human A33 protein was purchased from Novoprotein. A BSA-(Y)-DOTA-Bn conjugate was prepared as described (Cheal et al., supra). A33 and DOTA antigens were immobilized using the Amino Coupling kit (GE Healthcare). Purified bispecific antibodies and control antibodies were analyzed, and data were fit to a bivalent analyte model using the Biacore T100 evaluation software as described (Cheal et al., supra).

[2] = test system: SW1222 tumor; assay: PRIT optimization biodistribution (huA33-C825 dose, clearing agent dose), 24 h p.i. of ^177Lu-DOTA-Bn; details: for tumor-to-organ ratio, kidney: 24 h p.i.
Method: Next, additional biodistribution experiments were performed to optimize the CA dose during PRIT with 0.25 mg (1.19 nmol) as the huA33-C825 dose. Groups of tumor-bearing mice (n=3 to 4 per group) with were injected with huA33-C825, followed 24 h later with either: saline (i.e. vehicle), 2.4% (w/w, with respect to 0.25 mg huA33-C825 dose), 5% (w/w), 10% (w/w), or 25% (w/w) CA doses (0-62.5 μg/mouse). After an additional 4 h, mice were injected with 5.6 MBq of ^177Lu-DOTA-Bn, and sacrificed 24 h later for biodistribution analysis.
Next, ^177Lu-DOTA-Bn dose titration studies were performed using the optimized PRIT doses for huA33-C825 and CA. For ^177Lu-DOTA-Bn dose titration studies, the ^177Lu-activity biodistribution data for tumor and critical select tissues (blood, liver, spleen, and kidneys) was compared between ^177Lu-DOTA-Bn dose groups as both % ID/g and absolute uptake (kBq/g; see FIGS. 4A, 4B). Finally, a single-time point biodistribution experiment at 24 h p.i. of ^131I-trace labeled huA33-C825 (0.39-0.40 MBq with cold huA33-C825 added to 1.19 nmol) was performed in SW1222-tumor bearing mice to estimate the absolute antibody uptake of huA33-C825 in tumor (as pmol/g) during PRIT.
All animal experiments were approved by the Institutional Animal Care and Use Committee of Memorial Sloan Kettering Cancer Center and institutional guidelines for the proper and humane use of animals in research were followed. Athymic nu/nu female mice (6-8 weeks old; Harlan Sprague Dawley) were allowed to acclimate in the vivarium for at least one week. […] All reagents were given intravenously (i.v.) via the lateral tail vein. […] In addition, huA33-C825 was trace radiolabeled with I-131 to estimate tumor uptake during PRIT.

[3] = test system: A33-positive SW1222 tumor; assay: Estimation of absorbed doses and therapeutic index for PRIT; format: in vivo, mice; details: PRIT 0.25 mg huA33-C825, 62.5 μg CA, ^177Lu-DOTA-Bn; 2-120 h p.i. data
Source text: Exemplary estimates of absorbed doses for tumor and select normal tissue in female athymic mice carrying s.c. A33 positive-colorectal cancer tumors for PRIT including the optimum huA33-C825 and dextran-clearing agent doses are set forth in Table 6.

[4] = test system: SW1222 s.c. xenografts; assay: Three-cycle theranostic PRIT with nanoSPECT/CT dosimetry; format: in vivo, Nude mice
Method: Nude mice bearing established SW1222 s.c. xenografts (n=20; tumor volume=102±40 mm^3; average±standard deviation (SD)) underwent treatment (n=5-10/group) with either: no treatment (n=5), ^177Lu-DOTA-Bn only (n=5), or a three-cycle PRIT regimen consisting of anti-GPA33 PRIT+55 MBq of ^177Lu-DOTA-Bn (n=10; total: 165 MBq). Serial nanoSPECT/CT imaging was conducted on five randomly selected mice undergoing DPRIT up to 160 hours post-injection of the first cycle of ^177Lu-DOTA-Bn for dosimetry calculations.

[5] = test system: A33-positive SW1222 xenografts; assay: Dual-cycle PRIT therapy study; details: for Complete Response / Cures at 40 d post-treatment / absorbed radiation dose, Blood / absorbed radiation dose, Kidney / absorbed radiation dose, Tumor: Dual-cycle
Source text: In a second therapy study, dual-cycle huA33-C825 PRIT treatment was investigated.
The following definitions were used to describe treatment response: a complete response (CR) is defined as tumor shrinkage to <100 mm^3. […] Excessive tumor burden is defined as >2000 mm^3.

[6] = Triple-cycle, + 55.5 MBq (×3), 165.0 MBq
[7] = dual-cycle PRIT, 66.6 or 111 MBq ^177Lu-DOTA-Bn pooled
[8] = two cycles of PRIT+55.5 (total 111.0 MBq)

Substance: huA33-C825: bispecific antibody: humanized A33 IgG1 with murine C825 anti-DOTA-Bn scFv linked to the light chain C-terminus
- koff [1]: 0.00581 s⁻¹
- kon [1]: 91500 M⁻¹ s⁻¹
- tumor-to-organ ratio, kidney ([2]; 65 μg CA dose level (25% (w/w))): 18.4±13.4
- reduction in ^177Lu-DOTA-Bn tumor uptake compared with PRIT with saline ([2]; mouse, in vivo): ~50%
- tumor-to-organ ratio, blood ([2]; mouse, in vivo): 2.2±0.4
- tumor-to-organ ratio, muscle ([2]; mouse, in vivo): 23.2±3.8
- tumor-to-organ ratio, kidney ([2]; saline (no CA)): 4.9±0.6
- estimated absorbed dose, Blood [3]: 0.9 cGy/MBq
- estimated absorbed dose, Bone [3]: 0.6 cGy/MBq
- estimated absorbed dose, Heart [3]: 1.4 cGy/MBq
- estimated absorbed dose, Kidneys [3]: 5.3 cGy/MBq
- estimated absorbed dose, Large Intestine [3]: 0.8 cGy/MBq
- estimated absorbed dose, Liver [3]: 6.3 cGy/MBq
- estimated absorbed dose, Lung [3]: 1.8 cGy/MBq
- estimated absorbed dose, Muscle [3]: 0.3 cGy/MBq
- estimated absorbed dose, Small Intestine [3]: 0.5 cGy/MBq
- estimated absorbed dose, Spleen [3]: 6.6 cGy/MBq
- estimated absorbed dose, Stomach [3]: 0.6 cGy/MBq
- estimated absorbed dose, Tumor [3]: 65.8 cGy/MBq
- mice cured ([4]; 3 cycle dosing regimen): 10/10
- Complete Response [4, 6]: 10/10
- Cures at 40 d post-treatment [4, 6]: 10/10
- histopathologic findings of kidney, liver, spleen, and bone/marrow ([4]; mouse, in vivo): no remarkable histopathologic findings
- radiation dose to blood ([4]; mouse, in vivo): 150 rads
- radiation dose to kidney ([4]; mouse, in vivo): 875 rads
- toxicity ([4]; three-cycle PRIT (total 165 MBq)): without detectable toxicity; also recorded: no obvious toxicities
- tumor-free survival at 100 days ([4]; three-cycle PRIT, 55 MBq/cycle (total 165 MBq)): all treated animals
- Complete Response ([5]; + 11.1 MBq (×2), 22.2 MBq): 2/5
- Cures at 40 d post-treatment ([5]; + 11.1 MBq (×2), 22.2 MBq): 1/5
- absorbed radiation dose, Blood ([5]; + 11.1 MBq (×2), 22.2 MBq): 0.2 Gy
- absorbed radiation dose, Kidney ([5]; + 11.1 MBq (×2), 22.2 MBq): 1.2 Gy
- absorbed radiation dose, Tumor ([5]; + 11.1 MBq (×2), 22.2 MBq): 14.6 Gy
- Complete Response ([5]; + 33.3 MBq (×2), 66.6 MBq): 5/5
- Cures at 40 d post-treatment ([5]; + 33.3 MBq (×2), 66.6 MBq): 2/5
- absorbed radiation dose, Blood ([5]; + 33.3 MBq (×2), 66.6 MBq): 0.6 Gy
- absorbed radiation dose, Kidney ([5]; + 33.3 MBq (×2), 66.6 MBq): 3.5 Gy
- absorbed radiation dose, Tumor ([5]; + 33.3 MBq (×2), 66.6 MBq): 43.8 Gy
- Complete Response ([5]; + 55.5 MBq (×2), 111.0 MBq): 4/4
- Cures at 40 d post-treatment ([5]; + 55.5 MBq (×2), 111.0 MBq): 2/4
- absorbed radiation dose, Blood ([5]; + 55.5 MBq (×2), 111.0 MBq): 1.0 Gy
- absorbed radiation dose, Kidney ([5]; + 55.5 MBq (×2), 111.0 MBq): 5.9 Gy
- absorbed radiation dose, Tumor ([5]; + 55.5 MBq (×2), 111.0 MBq): 73.0 Gy
- alive without recurrence at more than 140 d [5, 7]: 2/9
- complete responses [5, 7]: 9/9
- complete response, share of test subjects ([5]; dual-cycle dosing): approximately 80%
- time to reach 500 mm^3 in recurrent tumors (individual mice) [5, 8]: 34 days and 45 days and 42 days
- tumor size at time of sacrifice (single mouse) [5, 8]: 44 mm^3

Reference: patent US11858993B2, “Multi-specific antibodies with affinity for human A33 antigen and DOTA metal complex and uses thereof” (Memorial Sloan Kettering Cancer Center, priority 2015, dated 2024)
